system: Escherichia coli TOP10; assay: shrunken log2 fold change of peptide-encoding DNA abundance (4.5 h post-induction vs induction); higher = less antimicrobial activity (less host growth inhibition); details: time post-induction: 4.5 h; library: site-saturation at positions 5, 18, 19, 20
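Further: peptides expressed intracellularly from a pBAD plasmid library in pooled LB shake-flask culture, induced with 0.3% L-arabinose, DNA abundance read by NGS, three biological replicates, DESeq2 with apeglm shrinkage.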

Sequence | shrunken log2 fold change
RRIRCRPPRLPRPRPRPPKAPRP | -0.112
RRIRTRPPRLPRPRPRPKDAPRP | 0.103
RRIRCRPPRLPRPRPRPFNQPRP | -0.421
RRIRVRPPRLPRPRPRPSRAPRP | 0.152
RRIRIRPPRLPRPRPRPRYGPRP | -0.411
RRIRIRPPRLPRPRPRPDIQPRP | -0.37
RRIRMRPPRLPRPRPRPWHLPRP | -0.00137
RRIRRRPPRLPRPRPRPMQPPRP | 0.0874
RRIRWRPPRLPRPRPRPATMPRP | 0.0187
RRIRARPPRLPRPRPRPQCVPRP | 0.0695
RRIRGRPPRLPRPRPRPHGMPRP | 0.0949
RRIRSRPPRLPRPRPRPIEHPRP | -0.0344
RRIRKRPPRLPRPRPRPVIDPRP | 1.29
RRIRARPPRLPRPRPRPNDLPRP | 0.172
RRIRCRPPRLPRPRPRPTMSPRP | -0.139
RRIRTRPPRLPRPRPRPFGDPRP | 0.0755
RRIRQRPPRLPRPRPRPGNFPRP | 0.0262
RRIRYRPPRLPRPRPRPFKRPRP | -0.294
RRIRLRPPRLPRPRPRPMLSPRP | 0.0192
RRIRNRPPRLPRPRPRPVGMPRP | 0.23
RRIRERPPRLPRPRPRPQIDPRP | -0.046
RRIRWRPPRLPRPRPRPAPGPRP | 0.634
RRIRSRPPRLPRPRPRPVALPRP | -0.0772
RRIRSRPPRLPRPRPRPIKQPRP | -0.13
RRIRCRPPRLPRPRPRPHGYPRP | -0.108

Sequence | shrunken log2 fold change
RRIRVRPPRLPRPRPRPDDWPRP | -0.198
RRIRFRPPRLPRPRPRPHRIPRP | -0.526
RRIRNRPPRLPRPRPRPCGSPRP | -0.0353
RRIRPRPPRLPRPRPRPFCEPRP | 0.0972
RRIRFRPPRLPRPRPRPESLPRP | 0.0896
RRIRWRPPRLPRPRPRPGKTPRP | 0.0109
RRIRYRPPRLPRPRPRPCLPPRP | -0.409
RRIRVRPPRLPRPRPRPWDAPRP | -0.0951
RRIRQRPPRLPRPRPRPSLNPRP | -0.216
RRIRWRPPRLPRPRPRPPAPPRP | 1.03
RRIRMRPPRLPRPRPRPWCNPRP | -0.016
RRIRDRPPRLPRPRPRPEIIPRP | 0.0753
RRIRARPPRLPRPRPRPCVRPRP | 0.135
RRIRMRPPRLPRPRPRPQENPRP | 0.48
RRIRWRPPRLPRPRPRPEHDPRP | -0.0282
RRIRERPPRLPRPRPRPHDPPRP | -0.0577
RRIRIRPPRLPRPRPRPEKQPRP | 0.0192
RRIRARPPRLPRPRPRPNTEPRP | 0.154
RRIRRRPPRLPRPRPRPNPIPRP | 0.208
RRIRNRPPRLPRPRPRPYVRPRP | -0.451
RRIRQRPPRLPRPRPRPFHMPRP | -0.0421
RRIRPRPPRLPRPRPRPSLKPRP | -0.25
RRIRKRPPRLPRPRPRPITNPRP | 0.133
RRIRYRPPRLPRPRPRPVRGPRP | 0.393
RRIRDRPPRLPRPRPRPVWRPRP | 0.0883

Sequence | shrunken log2 fold change
RRIRYRPPRLPRPRPRPTAPPRP | -0.25
RRIRWRPPRLPRPRPRPQYKPRP | -0.696
RRIRPRPPRLPRPRPRPNYRPRP | -0.451
RRIRRRPPRLPRPRPRPVTIPRP | 0.297
RRIRWRPPRLPRPRPRPGPVPRP | 0.423
RRIRPRPPRLPRPRPRPDKHPRP | -0.376
RRIRCRPPRLPRPRPRPLLMPRP | -0.195
RRIRWRPPRLPRPRPRPMKDPRP | -0.141
RRIRVRPPRLPRPRPRPFLTPRP | -0.0925
RRIRSRPPRLPRPRPRPIVWPRP | -0.0774
RRIRWRPPRLPRPRPRPAWDPRP | 1.05
RRIRQRPPRLPRPRPRPAMGPRP | 0.127
RRIRHRPPRLPRPRPRPYMMPRP | -3.2
RRIRSRPPRLPRPRPRPNDNPRP | -0.57
RRIRNRPPRLPRPRPRPDPIPRP | -0.143
RRIRNRPPRLPRPRPRPGDAPRP | 0.102
RRIRIRPPRLPRPRPRPEAHPRP | 0.0771
RRIRKRPPRLPRPRPRPRCNPRP | 0.196
RRIRTRPPRLPRPRPRPPASPRP | 1.72
RRIRWRPPRLPRPRPRPSFLPRP | -0.351
RRIRHRPPRLPRPRPRPVQHPRP | -0.0639
RRIRCRPPRLPRPRPRPMDEPRP | 0.348
RRIRIRPPRLPRPRPRPGKVPRP | -0.621
RRIRLRPPRLPRPRPRPFEVPRP | 0.0377
RRIRMRPPRLPRPRPRPHLDPRP | 0.108

Source: the supplement of paper PMC9112550, “Optimization of the antimicrobial peptide Bac7 by deep mutational scanning” (BMC Biology, 2022)
